{"source": "paper PMC10710730", "about": "“ProNGF promotes brain metastasis through TrkA/EphA2 induced Src activation in triple negative breast cancer cells” (Experimental Hematology & Oncology, 2023)", "binders": {"B1": {"name": "TrkA (tyrosine kinase receptor TrkA, Tropomyosin kinase A), overexpressed in MDA-MB-231 cells (receptor)", "chain": "not shown", "notes": "TrkA, receptor of NGF and proNGF; also called MDA-MB-231-TrkA; MDA-MB-231 HA-TrkA"}}, "biological_target": "T1, EphA2, endogenous in MDA-MB-231 cells (human (endogenous in MDA-MB-231), UniProt P29317 24-976)", "T1 construct": "EphA2 receptor, endogenous in the human breast cancer cell line MDA-MB-231; also called EphA2 receptor; source: endogenous, MDA-MB-231 cells", "T1 sequence (P29317 24-976)": "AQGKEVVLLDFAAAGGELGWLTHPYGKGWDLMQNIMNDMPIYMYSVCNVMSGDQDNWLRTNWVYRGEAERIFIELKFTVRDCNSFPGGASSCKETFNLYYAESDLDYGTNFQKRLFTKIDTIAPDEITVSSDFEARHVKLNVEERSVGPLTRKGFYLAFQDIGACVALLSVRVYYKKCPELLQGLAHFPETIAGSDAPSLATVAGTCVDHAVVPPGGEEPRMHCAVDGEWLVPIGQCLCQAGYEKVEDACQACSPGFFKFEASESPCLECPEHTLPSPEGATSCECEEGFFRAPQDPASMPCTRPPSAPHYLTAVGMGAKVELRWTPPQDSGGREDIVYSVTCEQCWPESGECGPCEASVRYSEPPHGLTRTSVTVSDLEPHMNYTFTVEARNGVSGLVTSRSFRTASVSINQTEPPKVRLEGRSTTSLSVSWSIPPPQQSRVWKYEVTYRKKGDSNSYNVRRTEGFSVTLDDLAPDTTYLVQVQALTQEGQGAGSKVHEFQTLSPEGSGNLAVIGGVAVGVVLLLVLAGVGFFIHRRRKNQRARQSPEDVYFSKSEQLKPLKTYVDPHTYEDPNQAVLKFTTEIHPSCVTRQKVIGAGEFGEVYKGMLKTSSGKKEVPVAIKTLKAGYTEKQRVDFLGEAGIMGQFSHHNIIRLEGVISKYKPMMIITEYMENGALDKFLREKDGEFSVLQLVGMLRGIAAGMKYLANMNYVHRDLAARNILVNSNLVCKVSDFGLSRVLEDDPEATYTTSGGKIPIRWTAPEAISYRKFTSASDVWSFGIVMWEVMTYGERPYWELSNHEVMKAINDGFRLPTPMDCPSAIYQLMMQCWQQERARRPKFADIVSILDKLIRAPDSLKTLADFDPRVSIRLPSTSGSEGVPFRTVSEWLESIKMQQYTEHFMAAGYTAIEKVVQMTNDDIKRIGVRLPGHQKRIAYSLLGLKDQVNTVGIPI", "assay": "proximity ligation; Duolink in Situ-Red kit rabbit/goat on PFA-fixed cells on collagen I coated slides; TrkA/EphA2 red dots per cell counted; cells treated with proNGF (0.5 nM, 0 to 120 min), in MDA-MB-231 TrkA also with p75NTR siRNA", "conditions": "partners not purified"}
{"binder": "B1", "values": [{"measurement": "fold increase of TrkA/EphA2 PLA signal, proNGF 60 min over 0 min", "value": 2, "unit": "fold"}]}
